Here are results for 1 substance from publication PMC3405053.

This test addresses MKP-3, endogenous in mouse liver (mouse (endogenous in C57BL/6 liver)) (UniProt Q9DBB1). Description: co-IP; liver lysates of C57BL/6 mice injected with adenoviruses (GFP or FOXO1 3A, plus shGFP or shMKP-3); MKP-3 immunoprecipitated with MKP-3 antibody-bound Exactra D matrix; western blot for FOXO1, quantified. A general note: In western blotting, separated proteins are transferred to a membrane and probed.
Sequence of UniProt Q9DBB1 (Q9DBB1 whole entry): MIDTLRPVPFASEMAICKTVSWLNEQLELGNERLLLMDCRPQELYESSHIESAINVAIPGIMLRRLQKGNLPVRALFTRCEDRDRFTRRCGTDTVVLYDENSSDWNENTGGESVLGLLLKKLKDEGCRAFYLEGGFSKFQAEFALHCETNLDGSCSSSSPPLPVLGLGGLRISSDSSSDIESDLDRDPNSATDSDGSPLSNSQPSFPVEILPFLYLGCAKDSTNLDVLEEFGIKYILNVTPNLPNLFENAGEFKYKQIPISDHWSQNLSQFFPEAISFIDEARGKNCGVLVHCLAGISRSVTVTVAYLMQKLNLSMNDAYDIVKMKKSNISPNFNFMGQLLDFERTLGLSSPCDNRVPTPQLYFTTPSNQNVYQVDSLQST

On to “FOXO1 3A (Akt phosphorylation resistant FOXO1 mutant), over-expressed in mouse liver (from UniProt Q9R1E0 1-652) (natural protein)”, for which the fold of FOXO1/FOXO1 3A protein associated with MKP-3 compared to GFP control came out at 7.9 fold.
